Measurements reported in publication PMC5826802.

Substrate: NC(=O)c1ccc[n+]([C@@H]2O[C@H](COP(=O)([O-])OP(=O)(O)OC[C@H]3O[C@@H](n4cnc5c(N)ncnc54)[C@H](O)[C@@H]3O)[C@@H](O)[C@H]2O)c1
Experiment: Enzyme kinetics of PARP15-catalyzed automodification by MLISA
Format: biochemical, human
Conditions: other: 500 nM PARP15, NAD+ 5-400 μM, Michaelis-Menten fit; pH 7.4

B1: PARP15 (Homo sapiens) (protein)
chain: NLPEHWTDMNHQLFCMVQLEPGQSEYNTIKDKFTRTCSSYAIEKIERIQNAFLWQSYQVKKRQMDIKNDHKNNERLLFHGTDADSVPYVNQHGFNRSCAGKNAVSYGKGTYFAVDASYSAKDTYSKPDSNGRKHMYVVRVLTGVFTKGRAGLVTPPPKNPHNPTDLFDSVTNNTRSPKLFVVFFDNQAYPEYLITFTA
  Km: 4.5 ± 2.9 µM
